Measurements: patent US6670147

Key:
[1] = biological target: mutated factor X (human FX in which amino acid 194 has been mutated from Arg to Tyr) (human) (UniProt P00742); assay: cell-based or functional assay
[2] = biological target: nonmutated (wild-type) FX (UniProt P00742); assay: cell-based or functional assay

Substance	coagulation time (recalcification time in FX-deficient plasma) [1] [s]	coagulation time (recalcification time in FX-deficient plasma) [2] [s]
prostate-specific antigen (PSA) (from UniProt P07288 25-261) (enzyme)	50	–
Russel's viper venom (RVV)	–	50
